These results are taken from patent publication US8017124B2, “Use of DMBT1 for capturing sulphate and phosphate group exposing agents” (priority 2004, dated 2011).

The target of one experiment is HIV-gp120 (Human immunodeficiency virus type 1 group M subtype B, UniProt P04578). The settings on record: S. gordonii binding to immobilized SRCRP2 in absence and presence of HIV-gp120.
Experiment [1] has as its system Gram-positive S. mutans and Gram-negative E. coli bacteria. In words: Peptide bacterial binding and aggregation studies. The settings on record: synthetic peptides. The procedure:
For quantitative measurements of bacterial aggregation, we added 200 μl peptide stock solution (1 mg/ml in 10% DMSO) diluted with 300 μl TBS containing 0.1% v/v Tween 20 and 1 mM CaCl2 (TBS-TC) to 500 μl of the respective bacterial suspensions to obtain final peptide concentrations of […]. As controls, we used bacterial suspensions, to which 200 μl 10% (v/v %) DMSO in H2O and 300 μl TBS-TC were added. Bacterial aggregation was monitored by measuring the optical density at 700 nm in intervals of 1 min for 1 h in a spectrophotometer (UVICON 930, Kontron Instruments). For the semi-quantitative high-throughput competition assays, we first determined the allowed pH range for DMBT1pbs1-mediated aggregation of S. gordonii and E. coli by using TBS-TC adjusted with either HCl or NaOH. […] For monitoring competitive effects, we preincubated 20 μl of the DMBT1pbs1 stock solution (20 μg) with 20 μl of the respective substance solutions in 48-well microtiter plates at room temperature (RT) for 2 min. As reference served 20 μl 10% (v/v) DMSO solution in H2O mixed with 20 μl of the solvents of the respective substances. Afterwards, 100 μl of S. gordonii or E. coli (resuspended in TBS-TC or TBS-T, respectively, for the calcium-free assays) solution was added simultaneously to each well using a multichannel pipette. […]

Description for HIV-gp120: Left panel: peptide SRCRP2 (containing DMBT1pbs1) was immobilized on ELISA plates and bacterial binding (S. gordonii) was quantified in the absence and presence of different concentrations of HIV-gp120.

In the case of GRVEVLYRGSW [DMBT1pbs1], the HIV-gp120 binding activity result in the experiment with HIV-gp120 is recorded as “exerts HIV-gp120 binding activity”. Further, the “bacterial binding and aggregation activity (Gram-positive and -negative bacteria)” value in experiment [1] was “sufficient and necessary for interaction with Gram-positive and -negative bacteria”.
